Columns and labels:
[1] = molecular target: Saccharomyces cerevisiae Tel1 (TEL1-FLAG), endogenously purified (S. cerevisiae) (UniProt P38110); assay: cryo-EM structure; Tel1-FLAG purified from S. cerevisiae, 20–50 μg/mL in 20 mM HEPES pH 8.0, 40 mM KOAc, 5 mM MgCl2, 0.1% trehalose, 2 mM DTT, 0.01% NP-40; symmetric dimer (C2, 4.1 Å) and asymmetric dimer (4.3 Å) classes
[2] = molecular target: GST-Xrs2 (full-length S. cerevisiae Xrs2) (S. cerevisiae) (UniProt P33301); assay: pull-down; glutathione sepharose saturated with full-length GST-Xrs2 added to lysates of yeast expressing wild-type or mutant Tel1; 2 h at 4 °C, washed 3 times with lysis buffer; immunoblot with anti-PAP antibody
Sequence of GST-Xrs2 (full-length S. cerevisiae Xrs2) (S. cerevisiae) (P33301 whole entry): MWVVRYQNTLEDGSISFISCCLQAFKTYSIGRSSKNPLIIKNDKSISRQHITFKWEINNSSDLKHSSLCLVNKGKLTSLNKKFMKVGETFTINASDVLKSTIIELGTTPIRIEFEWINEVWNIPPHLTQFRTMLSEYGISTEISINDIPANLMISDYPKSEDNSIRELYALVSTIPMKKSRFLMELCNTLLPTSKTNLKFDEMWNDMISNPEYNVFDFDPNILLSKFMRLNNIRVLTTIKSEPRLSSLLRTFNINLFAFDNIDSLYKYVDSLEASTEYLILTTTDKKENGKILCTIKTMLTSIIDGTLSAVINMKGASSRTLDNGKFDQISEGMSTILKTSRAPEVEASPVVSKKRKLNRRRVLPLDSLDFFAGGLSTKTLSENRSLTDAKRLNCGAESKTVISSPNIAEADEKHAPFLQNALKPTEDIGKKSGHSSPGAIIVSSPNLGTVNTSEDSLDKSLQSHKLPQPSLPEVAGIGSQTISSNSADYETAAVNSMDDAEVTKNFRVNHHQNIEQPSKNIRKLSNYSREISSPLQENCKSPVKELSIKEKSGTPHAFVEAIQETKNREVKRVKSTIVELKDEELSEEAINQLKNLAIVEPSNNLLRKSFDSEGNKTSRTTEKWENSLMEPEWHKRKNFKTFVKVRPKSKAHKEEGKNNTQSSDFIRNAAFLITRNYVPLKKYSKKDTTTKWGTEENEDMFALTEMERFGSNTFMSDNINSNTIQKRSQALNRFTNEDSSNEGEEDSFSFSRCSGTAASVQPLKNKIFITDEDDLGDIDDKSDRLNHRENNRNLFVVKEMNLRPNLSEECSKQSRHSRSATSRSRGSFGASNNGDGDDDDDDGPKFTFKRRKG

| Substance | stoichiometry N [1] | decrease of Xrs2 binding against wild-type Tel1 [2] |
| --- | --- | --- |
| Saccharomyces cerevisiae Tel1 (TEL1-FLAG), endogenously purified, P38110 1-2787 | 2 |  |
| Tel1 K2751E (TAP-tagged), P38110 1-2787 |  | 100% |

Source: article PMC6796912
